Experimental data reported in patent US20240316154A1 (Eli Lilly, published 2024).
Changes are numbered by the printed parent chain. Numbers in names are those of the source.

B1: VHH moiety 26 (MC6.1C22-L104T) (VHH)
VHH: EVQLLESGGGLVQPGGSLRLSCAASGRYIDETAVAWFRQAPGKEREFVAGIGGGVDITYYADSVKGRFTISRDNSKNTLYLQMNSLRPEDTAVYYCAARPGRPTITSKVADLYPYWGQGTLVTVSS
B2: VHH moiety 23 (MC6.1C22-L104E) (VHH)
VHH: B1 VHH with T104E
B3: VHH moiety 24 (MC6.1C22-L104G) (VHH)
VHH: B1 VHH with T104G
B4: VHH moiety 25 (MC6.1C22-L104Q) (VHH)
VHH: B1 VHH with T104Q
B5: VHH moiety 13 (MC6.1C22-Y59E) (VHH)
VHH: B1 VHH with Y59E, T104L
B6: VHH moiety 20 (MC6.1C22-P103) (VHH)
VHH: B1 VHH with P103E, T104L
notes: name printed without the new residue
B7: VHH moiety 14 (MC6.1C22-Y59Q) (VHH)
VHH: B1 VHH with Y59Q, T104L
B8: VHH moiety 27 (MC6.1C22-S107E) (VHH)
VHH: B1 VHH with T104L, S107E
B9: VHH moiety 16 (MC6.1C22-Y59T) (VHH)
VHH: B1 VHH with Y59T, T104L
B10: VHH moiety 12 (MC6.1C22-Y59A) (VHH)
VHH: B1 VHH with Y59A, T104L
B11: VHH moiety 15 (MC6.1C22-Y59S) (VHH)
VHH: B1 VHH with Y59S, T104L
B12: VHH moiety 11 (MC6.1C22-157Q) (VHH)
VHH: B1 VHH with I57Q, T104L
notes: name printed as 157Q
B13: VHH moiety 19 (MC6.1C22-R102S) (VHH)
VHH: B1 VHH with R102S, T104L
B14: VHH moiety 18 (MC6.1C22-R102Q) (VHH)
VHH: B1 VHH with R102Q, T104L
B15: VHH moiety 10 (MC6.1C22-157E) (VHH)
VHH: B1 VHH with I57E, T104L
notes: name printed as 157E
B16: VHH moiety 4 (MC6.1C80.43) (VHH)
VHH: B1 VHH with E44G, T104L
B17: VHH moiety 9 (MC6.1C22-R27A) (VHH)
VHH: B1 VHH with R27A, T104L
B18: VHH moiety 21 (MC6.1C22-P103Q) (VHH)
VHH: B1 VHH with P103Q, T104L
B19: VHH moiety 17 (MC6.1C22-R102K) (VHH)
VHH: B1 VHH with R102K, T104L
B20: VHH moiety 8 (MC6.1C22-G26Y) (VHH)
VHH: B1 VHH with G26Y, T104L
B21: VHH moiety 39 (MC6.1C90.43) (VHH)
VHH: B1 VHH with E44G, A97G, T104L
B22: VHH moiety 40 (MC6.1C95.43) (VHH)
VHH: B1 VHH with E44G, A97G, A98T, T104L
B23: VHH moiety 22 (MC6.1C22-P103S) (VHH)
VHH: B1 VHH with P103S, T104L

molecular target: T1, Cynomolgus monkey serum albumin (cynomolgus monkey, UniProt A2V9Z4 25-608); experiment: SPR, SA on chip, 25 C
T1 construct: bought; immobilised on a CM5 chip by amine coupling; also called Cyno SA

| binding result | Binder |
| --- | --- |
| no binding (tested: 300 nM) | B1 |
| no binding (tested: 300 nM) | B2 |
| no binding (tested: 300 nM) | B3 |
| no binding (tested: 300 nM) | B4 |
| no binding (tested: 300 nM) | B5 |
| no binding (tested: 300 nM) | B6 |
| no binding (tested: 300 nM) | B7 |
| no binding (tested: 300 nM) | B8 |

molecular target: T2, Mouse serum albumin (mouse, UniProt P07724 25-608); experiment: SPR, SA on chip, 25 C
T2 construct: bought; immobilised on a CM5 chip by amine coupling; also called Mouse SA

| binding result | Binder |
| --- | --- |
| no binding (tested: 300 nM) | B9 |
| no binding (tested: 300 nM) | B10 |
| no binding (tested: 300 nM) | B1 |
| no binding (tested: 300 nM) | B11 |
| no binding (tested: 300 nM) | B2 |
| no binding (tested: 300 nM) | B3 |
| no binding (tested: 300 nM) | B5 |
| no binding (tested: 300 nM) | B12 |
| no binding (tested: 300 nM) | B6 |
| no binding (tested: 300 nM) | B7 |
| no binding (tested: 300 nM) | B8 |

molecular target: T3, Rat serum albumin (rat, UniProt P02770 25-608); experiment: SPR, SA on chip, 25 C
T3 construct: bought; immobilised on a CM5 chip by amine coupling; also called Rat SA

| binding result | Binder |
| --- | --- |
| no binding (tested: 300 nM) | B9 |
| no binding (tested: 300 nM) | B10 |
| no binding (tested: 300 nM) | B1 |
| no binding (tested: 300 nM) | B11 |
| no binding (tested: 300 nM) | B2 |
| no binding (tested: 300 nM) | B3 |
| no binding (tested: 300 nM) | B5 |
| no binding (tested: 300 nM) | B12 |
| no binding (tested: 300 nM) | B6 |
| no binding (tested: 300 nM) | B7 |
| no binding (tested: 300 nM) | B8 |

molecular target: T4, Pig serum albumin (pig, UniProt P08835 25-607); experiment: SPR, SA on chip, 25 C
T4 construct: bought; immobilised on a CM5 chip by amine coupling; also called Pig SA

| binding result | Binder |
| --- | --- |
| no binding (tested: 300 nM) | B9 |
| no binding (tested: 300 nM) | B10 |
| no binding (tested: 300 nM) | B1 |
| no binding (tested: 300 nM) | B11 |
| no binding (tested: 300 nM) | B2 |
| no binding (tested: 300 nM) | B3 |
| no binding (tested: 300 nM) | B5 |
| no binding (tested: 300 nM) | B12 |
| no binding (tested: 300 nM) | B6 |
| no binding (tested: 300 nM) | B7 |
| no binding (tested: 300 nM) | B8 |

molecular target: T5, Dog serum albumin (dog, UniProt P49822 25-608); experiment: SPR, SA on chip, 25 C
T5 construct: bought; immobilised on a CM5 chip by amine coupling; also called Dog SA

| binding result | Binder |
| --- | --- |
| no binding (tested: 300 nM) | B10 |
| no binding (tested: 300 nM) | B1 |
| no binding (tested: 300 nM) | B11 |
| no binding (tested: 300 nM) | B2 |
| no binding (tested: 300 nM) | B3 |
| no binding (tested: 300 nM) | B5 |
| no binding (tested: 300 nM) | B12 |
| no binding (tested: 300 nM) | B7 |
| no binding (tested: 300 nM) | B8 |

molecular target: T6, Cow serum albumin (cow, UniProt P02769 25-607); experiment: SPR, SA on chip, 25 C
T6 construct: bought; immobilised on a CM5 chip by amine coupling; also called Cow SA

| binding result | Binder |
| --- | --- |
| no binding (tested: 300 nM) | B9 |
| no binding (tested: 300 nM) | B10 |
| no binding (tested: 300 nM) | B13 |
| no binding (tested: 300 nM) | B1 |
| no binding (tested: 300 nM) | B14 |
| no binding (tested: 300 nM) | B11 |
| no binding (tested: 300 nM) | B4 |
| no binding (tested: 300 nM) | B5 |
| no binding (tested: 300 nM) | B12 |
| no binding (tested: 300 nM) | B6 |
| no binding (tested: 300 nM) | B15 |
| no binding (tested: 300 nM) | B7 |
| no binding (tested: 300 nM) | B8 |

molecular target: T7, Human serum albumin (human, UniProt P02768 25-609); experiment: SPR, SA on chip, VHH 300 nM, 25 C
T7 construct: bought; immobilised on a CM5 chip by amine coupling; also called Human SA
Protocol: (§1) Immobilization of SA to a Series S Sensor Chip CM5 surface is performed according to the manufacturer's instructions (amine coupling kit BR-1000-50). […] Human SA is obtained from Sigma Aldrich (St. Louis, MO; Cat. No. A8763). […] Mouse SA is obtained from Sigma Aldrich (Cat. No. A3559). Rat SA is obtained from Sigma Aldrich (Cat. No. A4538). Pig SA is obtained from Sigma Aldrich (Cat. No. A4414). […] Cow SA is obtained from Sigma Aldrich (Cat. No. A7030). The various SAs are covalently immobilized through free amines onto a carboxymethyl dextran-coated sensor chip CM5 targeting a surface density of average approximately 77 (58-98) RU. Excess reactive groups on the surfaces (flow cell 1 and 2) are deactivated by injecting 70 μL of 1 M ethanolamine hydrochloride-NaOH, pH 8.5, at 10 μL/min.
(§2) VHH moieties are diluted in HBS-EP+buffer (10 mM HEPES, pH 7.6, 150 mM NaCl, 3 mM EDTA, and 0.05% Polysorbate 20) at concentrations of 300 nM. 150 μL of sample is individually injected sequentially across the immobilized SAs surface and is dissociated for 600 sec at a flow rate of 50 L/min at 25 C. […] The resulting sensorgrams are analyzed using Biacore 8K Insight Evaluation Software (version 2.0.15.12933) to calculate the dissociation rate (kd).

| koff [s⁻¹] | Binder |
| --- | --- |
| 0.00021 | B16 |
| 0.0039 | B9 |
| 0.011 | B10 |
| 0.0045 | B13 |
| 0.0012 | B17 |
| 0.0025 | B18 |
| 0.0076 | B14 |
| 0.0015 | B19 |
| 0.0058 | B11 |
| 0.001 | B20 |
| 0.0074 | B12 |
| 0.0092 | B6 |
| 9.4e-05 | B21 |
| 0.00014 | B22 |
| 0.013 | B7 |
| 0.014 | B8 |
| 0.0028 | B23 |

molecular target: T1, Cynomolgus monkey serum albumin; experiment: SPR, SA on chip, VHH 300 nM, 25 C
Protocol: as §1, §2

| koff [s⁻¹] | Binder |
| --- | --- |
| 0.00053 | B16 |
| 0.015 | B9 |
| 0.0073 | B13 |
| 0.0032 | B17 |
| 0.014 | B18 |
| 0.0072 | B14 |
| 0.0022 | B19 |
| 0.003 | B20 |
| 0.0006 | B21 |
| 0.00072 | B22 |
| 0.014 | B23 |

molecular target: T2, Mouse serum albumin; experiment: SPR, SA on chip, VHH 300 nM, 25 C
Protocol: as §1, §2

| koff [s⁻¹] | Binder |
| --- | --- |
| 0.0043 | B16 |
| 0.015 | B13 |
| 0.013 | B17 |
| 0.013 | B18 |
| 0.01 | B19 |
| 0.0032 | B20 |
| 0.0056 | B21 |
| 0.0054 | B22 |
| 0.01 | B23 |

molecular target: T3, Rat serum albumin; experiment: SPR, SA on chip, VHH 300 nM, 25 C
Protocol: as §1, §2

| koff [s⁻¹] | Binder |
| --- | --- |
| 0.0033 | B16 |
| 0.015 | B13 |
| 0.011 | B17 |
| 0.011 | B18 |
| 0.014 | B14 |
| 0.0081 | B19 |
| 0.0075 | B20 |
| 0.0038 | B21 |
| 0.0053 | B22 |
| 0.01 | B23 |

molecular target: T4, Pig serum albumin; experiment: SPR, SA on chip, VHH 300 nM, 25 C
Protocol: as §1, §2

| koff [s⁻¹] | Binder |
| --- | --- |
| 0.0057 | B16 |
| 0.014 | B13 |
| 0.012 | B17 |
| 0.01 | B18 |
| 0.013 | B19 |
| 0.0092 | B20 |
| 0.0065 | B21 |
| 0.0058 | B22 |
| 0.011 | B23 |

molecular target: T5, Dog serum albumin; experiment: SPR, SA on chip, VHH 300 nM, 25 C
Protocol: as §1, §2

| koff [s⁻¹] | Binder |
| --- | --- |
| 0.0017 | B16 |
| 0.014 | B13 |
| 0.011 | B17 |
| 0.0081 | B18 |
| 0.015 | B14 |
| 0.0082 | B19 |
| 0.0022 | B20 |
| 0.0021 | B21 |
| 0.0021 | B22 |
| 0.0074 | B23 |

molecular target: T6, Cow serum albumin; experiment: SPR, SA on chip, VHH 300 nM, 25 C
Protocol: as §1, §2

| koff [s⁻¹] | Binder |
| --- | --- |
| 0.015 | B19 |
| 0.015 | B20 |
